From article PMC12394075, “Domain coupling in activation of a family C GPCR” (Nature Chemical Biology, 2024)

Biological target: the molecule itself
Assay: SEC; Superdex 200 10/300 increase; 100 mM NaCl, 20 mM HEPES, pH 7.5

B1: isolated mGluR2 LBD (residues 22–502 with a Cys234Ser mutation) (domain or fragment, UniProt P31421 22-502, looked up)
chain: AKKVLTLEGDLVLGGLFPVHQKGGPAEECGPVNEHRGIQRLEAMLFALDRINRDPHLLPGVRLGAHILDSCSKDTHALEQALDFVRASLSRGADGSRHICPDGSYATHSDAPTAVTGVIGGSYSDVSIQVANLLRLFQIPQISYASTSAKLSDKSRYDYFARTVPPDFFQAKAMAEILRFFNWTYVSTVASEGDYGETGIEAFELEARARNISVATSEKVGRAMSRAAFEGVVRALLQKPSARVAVLFTRSEDARELLAATQRLNASFTWVASDGWGALESVVAGSERAAEGAITIELASYPISDFASYFQSLDPWNNSRNPWFREFWEERFHCSFRQRDCAAHSLRAVPFEQESKIMFVVNAVYAMAHALHNMHRALCPNTTHLCDAMRPVNGRRLYKDFVLNVKFDAPFRPADTDDEVRFDRFGDGIGRYNIFTYLRAGSGRYRYQKVGYWAEGLTLDTSFIPWASPSAGPLPASRCSE
notes: Rat is surmised because the same peptides are compared with the full-length rat construct; the simulations used human mGluR2; also called LBD-alone construct; LBD-only construct; source: Expi293 GNTI- cells, secreted into media, purified (anti-FLAG M2 resin, SEC)
In the case of B1, the “stoichiometry N” value is reported as 2.
